Experimental findings from US20210169929A1 are described below.

In this test the target is CD19 CAR (4G7-CAR) encoded by Construct 1, expressed on transfected HEK293 cells. The experiment in a line: flow cytometry, HEK293 cells transfected with Construct 1, biotinylated CD19 then streptavidin-PE; unstained 17.4, streptavidin-PE only 18.5.
Chain of CD19 CAR (4G7-CAR) encoded by Construct 1, expressed on transfected HEK293 cells (chain, as listed by the source limits assumed): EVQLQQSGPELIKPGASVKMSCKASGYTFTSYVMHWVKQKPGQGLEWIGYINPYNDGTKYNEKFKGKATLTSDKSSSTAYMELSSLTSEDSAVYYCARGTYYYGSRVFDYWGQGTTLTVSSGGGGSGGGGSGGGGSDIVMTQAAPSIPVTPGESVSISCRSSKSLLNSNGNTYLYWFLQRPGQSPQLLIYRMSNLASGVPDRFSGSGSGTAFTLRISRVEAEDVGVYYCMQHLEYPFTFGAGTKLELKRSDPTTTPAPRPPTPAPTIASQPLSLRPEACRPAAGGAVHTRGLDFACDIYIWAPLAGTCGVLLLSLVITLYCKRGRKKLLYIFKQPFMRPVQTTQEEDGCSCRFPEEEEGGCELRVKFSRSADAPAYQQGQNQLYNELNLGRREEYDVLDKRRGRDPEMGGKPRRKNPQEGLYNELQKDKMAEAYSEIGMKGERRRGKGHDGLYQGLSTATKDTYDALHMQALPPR

For the substance “biotinylated CD19 (Acro CD9-H8259, Acro Biosystems) (from UniProt P15391 20-291)”, the PE (CD19) flow cytometry value is 33.3.
